The source of these data is patent US20220259289A1 (Janssen / Centocor, published 2022).

For test [1], the target named is human serum albumin (human) (UniProt P02768). As to the kind of experiment: ELISA, negative control HSA. On the technique in general: ELISA stands for enzyme-linked immunosorbent assay.
The target of test [2] is unrelated Fc-fused recombinant protein. Description: ELISA, negative control Fc protein.
In test [3] the target is T1, recombinant biotinylated CD137 protein (Fc-fusion protein, R&D Systems 838-4B) (human, UniProt Q07011 24-186, biotinylated, sites not stated).
T1 construct: Bought Fc fusion; also called CD137-Fc
Description: ELISA, lysate on biotinylated CD137-Fc. The essentials:
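Biotinylated CD137-Fc, an unrelated Fc-fusion protein or human serum albumin captured 1 h on streptavidin plates blocked in Starting Block T20; diluted bacterial lysate applied 1 h. Bound binders detected with HRP-conjugated anti-Centyrin antibody (PAB25) for 1 h, then POD substrate read-out.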

Substitutions are numbered along the chain they refer to.

human serum albumin (human), sequence (P02768 25-609 limits assumed): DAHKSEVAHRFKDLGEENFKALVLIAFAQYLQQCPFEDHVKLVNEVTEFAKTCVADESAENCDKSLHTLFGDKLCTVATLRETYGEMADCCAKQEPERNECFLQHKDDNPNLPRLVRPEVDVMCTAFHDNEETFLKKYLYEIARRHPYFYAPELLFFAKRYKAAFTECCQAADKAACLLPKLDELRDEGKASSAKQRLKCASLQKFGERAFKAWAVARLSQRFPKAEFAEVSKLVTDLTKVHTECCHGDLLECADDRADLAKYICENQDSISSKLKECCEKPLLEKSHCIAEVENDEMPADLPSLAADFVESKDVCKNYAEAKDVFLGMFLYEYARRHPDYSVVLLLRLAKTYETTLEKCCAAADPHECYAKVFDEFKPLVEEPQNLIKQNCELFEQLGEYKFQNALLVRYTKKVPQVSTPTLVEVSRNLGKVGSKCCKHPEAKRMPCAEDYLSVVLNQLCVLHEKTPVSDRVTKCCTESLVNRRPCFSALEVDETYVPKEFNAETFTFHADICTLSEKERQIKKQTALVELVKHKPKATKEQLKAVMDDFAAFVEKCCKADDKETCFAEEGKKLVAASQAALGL

B1: ISOP193HR9P1A11 (designed binder, not shown: small tags and cut ends)
chain: LPAPKNLVVSRVTEDSARLSWTAPDAAFDSFEIYYLEGGRGEAIVLTVPGSERSYDLTGLKPGTEYLVTIYGVKCGWASNPLSAIFTT
In turn, B1 displayed an ELISA HSA (RLU) in test [1] of 4240 RLU. Moreover, the ELISA Fc Control (RLU) in test [2] stood at 28300 RLU. Besides, the “ELISA CD137 (RLU)” value in test [3] turned out to be 1.66e+07 RLU.

B2: ISOP193FR9P1C1 (designed binder, not shown: small tags and cut ends)
chain: LPAPKNLVVSRVTEDSARLSWTAPDAAFDSFEIYYFENENGGEAIVLTVPGSERSYDLTGLKPGTEYLVTIYGVKGCDWSDPLSAIFTT
In test [1], B2 had an ELISA HSA (RLU) of 8160 RLU. Besides, the ELISA Fc Control (RLU) in test [2] is 36800 RLU. Moreover, the “ELISA CD137 (RLU)” value in test [3] was 1.41e+07 RLU.

B3: ISOP193HR9P1D11 (designed binder, not shown: small tags and cut ends)
chain: B2 chain with E32D, F36Y, N38L, E39R, N40L, G76V, D78E, W79Q, D81Y
In turn, B3 displayed an ELISA HSA (RLU) in test [1] of 6240 RLU. In addition, in test [2], the ELISA Fc Control (RLU) stood at 48700 RLU. Further, in test [3], the “ELISA CD137 (RLU)” value amounted to 1.42e+07 RLU.

B4: ISOP193HR9P1B11 (designed binder, not shown: small tags and cut ends)
chain: B2 chain with N38L, E39R, N40L, D78G, W79Y
Molecule B4 had an ELISA HSA (RLU) in test [1] of 4080 RLU. Besides, in test [2], the ELISA Fc Control (RLU) is 15000 RLU. In addition, the “ELISA CD137 (RLU)” value in test [3] was 1.66e+07 RLU.

B5: ISOP193FR9P1E10 (designed binder, not shown: small tags and cut ends)
chain: B2 chain with A23T, E32H, Y34H, F36L, N38G, N40W
On to B5, for which the ELISA HSA (RLU) in test [1] was found to be 31000 RLU. Moreover, the ELISA Fc Control (RLU) in test [2] is 133000 RLU. Further, in test [3], the “ELISA CD137 (RLU)” value was found to be 2.05e+06 RLU.

B6: ISOP193HR9P1B7 (designed binder, not shown: small tags and cut ends)
chain: B2 chain with N38L, E39R, N40L, T70S, D78G, W79Y
In test [1], B6 yielded an ELISA HSA (RLU) of 2240 RLU. Also, in test [2], the ELISA Fc Control (RLU) was found to be 13000 RLU. The “ELISA CD137 (RLU)” value in test [3] turned out to be 1.64e+07 RLU.

B7: ISOP193FR9P1G11 (designed binder, not shown: small tags and cut ends)
chain: B2 chain with E32T
B7: the ELISA HSA (RLU) in test [1] was found to be 11000 RLU. Besides, the ELISA Fc Control (RLU) in test [2] came to 60600 RLU. Also, in test [3], the “ELISA CD137 (RLU)” value came to 1.08e+07 RLU.

B8: ISOP193FR9P1C5 (designed binder, not shown: small tags and cut ends)
chain: B2 chain with E32H, F36L, N38Q, E39Y, N40S, G41R
On to B8, for which the ELISA HSA (RLU) in test [1] came to 19200 RLU. The ELISA Fc Control (RLU) in test [2] came to 79300 RLU. Moreover, the “ELISA CD137 (RLU)” value in test [3] is 8.66e+06 RLU.

B9: ISOP193FR9P1H6 (designed binder, not shown: small tags and cut ends)
chain: B2 chain with E32D, Y34N, N38Q, E39P, N40K
B9 registered an ELISA HSA (RLU) in test [1] of 23000 RLU. Further, in test [2], the ELISA Fc Control (RLU) came to 88300 RLU. In test [3], the “ELISA CD137 (RLU)” value turned out to be 1.12e+07 RLU.

B10: ISOP193FR9P1G8 (designed binder, not shown: small tags and cut ends)
chain: B2 chain with N40L
Regarding B10, in test [1], the ELISA HSA (RLU) was 5040 RLU. Moreover, the ELISA Fc Control (RLU) in test [2] worked out at 25100 RLU. The “ELISA CD137 (RLU)” value in test [3] came to 1.45e+07 RLU.

B11: ISOP193HR9P1A5 (designed binder, not shown: small tags and cut ends)
chain: B2 chain with E32D, F36Y, N38L, E39R, N40L, D78G, W79Y, D81A, F87V
Regarding B11, the ELISA HSA (RLU) in test [1] is 2080 RLU. For the same molecule, the ELISA Fc Control (RLU) in test [2] turned out to be 6080 RLU. Further, the “ELISA CD137 (RLU)” value in test [3] was 1.49e+07 RLU.

B12: ISOP193FR9P1F8 (designed binder, not shown: small tags and cut ends)
chain: B2 chain with E32D, Y34N, N40L
In test [1], B12 had an ELISA HSA (RLU) of 5040 RLU. Besides, the ELISA Fc Control (RLU) in test [2] turned out to be 25700 RLU. For the same molecule, the “ELISA CD137 (RLU)” value in test [3] is 8.57e+06 RLU.

B13: ISOP193HR9P1A6 (designed binder, not shown: small tags and cut ends)
chain: B2 chain with E32D, F36Y, N38L, E39R, N40L, T70S, D78G, W79Y
The molecule B13 came in with an ELISA HSA (RLU) in test [1] of 5120 RLU. Also, in test [2], the ELISA Fc Control (RLU) stood at 25000 RLU. Also, in test [3], the “ELISA CD137 (RLU)” value was 1.46e+07 RLU.

B14: ISOP193FR9P1G9 (designed binder, not shown: small tags and cut ends)
chain: B2 chain with V8F, E32Q, F36R, N38Q, E39W, N40W, G41D
Consider B14, for which, in test [1], the ELISA HSA (RLU) came out at 6800 RLU. The ELISA Fc Control (RLU) in test [2] came out at 33600 RLU. Besides, the “ELISA CD137 (RLU)” value in test [3] turned out to be 1.28e+07 RLU.

B15: ISOP193HR9P1E6 (designed binder, not shown: small tags and cut ends)
chain: B2 chain with F36A, N38F, E39G, N40Y, G41Y, D78A, W79A
For the molecule B15, in test [1], the ELISA HSA (RLU) was determined as 3040 RLU. Moreover, in test [2], the ELISA Fc Control (RLU) was found to be 20100 RLU. Also, the “ELISA CD137 (RLU)” value in test [3] is 1.13e+07 RLU.

B16: ISOP193FR9P1D7 (designed binder, not shown: small tags and cut ends)
chain: B2 chain with F36A, N38Y, E39F, N40K, G41N, F87S
The molecule B16 returned an ELISA HSA (RLU) in test [1] of 2640 RLU. In addition, the ELISA Fc Control (RLU) in test [2] was determined as 15000 RLU. Moreover, the “ELISA CD137 (RLU)” value in test [3] was determined as 2.2e+06 RLU.

B17: ISOP193FR9P1C9 (designed binder, not shown: small tags and cut ends)
chain: B2 chain with E32Q, N38W, E39V, N40V
Take B17: in test [1], the ELISA HSA (RLU) was determined as 4000 RLU. Besides, the ELISA Fc Control (RLU) in test [2] came to 21000 RLU. For the same molecule, in test [3], the “ELISA CD137 (RLU)” value is 1.23e+07 RLU.

B18: ISOP193FR9P1D5 (designed binder, not shown: small tags and cut ends)
chain: B2 chain with E32Y, Y34R, F36I, N38D, E39V, N40D, G41F
Turning to B18, the ELISA HSA (RLU) in test [1] was found to be 10800 RLU. Besides, the ELISA Fc Control (RLU) in test [2] stood at 51700 RLU. In test [3], the “ELISA CD137 (RLU)” value worked out at 6.05e+06 RLU.

B19: ISOP193HR9P1D8 (designed binder, not shown: small tags and cut ends)
chain: B2 chain with E32D, F36L, N38S, E39G, N40R, G41D, T70S, D78G, W79Y
As for B19, in test [1], the ELISA HSA (RLU) is 2640 RLU. Besides, the ELISA Fc Control (RLU) in test [2] is 10900 RLU. Further, in test [3], the “ELISA CD137 (RLU)” value was 6.27e+06 RLU.

B20: ISOP193FR9P1G7 (designed binder, not shown: small tags and cut ends)
chain: B2 chain with E32H, Y34H, F36L, N38G, N40W
In test [1], B20 came in with an ELISA HSA (RLU) of 11000 RLU. In test [2], the ELISA Fc Control (RLU) was determined as 42300 RLU. Besides, in test [3], the “ELISA CD137 (RLU)” value was 5.5e+06 RLU.

B21: ISOP193HR9P1E2 (designed binder, not shown: small tags and cut ends)
chain: B2 chain with F36L, N38W, E39C, N40S, D78A, W79A
On to B21, for which the ELISA HSA (RLU) in test [1] stood at 3840 RLU. Besides, the ELISA Fc Control (RLU) in test [2] turned out to be 13100 RLU. Also, the “ELISA CD137 (RLU)” value in test [3] is 9.02e+06 RLU.

B22: ISOP193HR9P1C7 (designed binder, not shown: small tags and cut ends)
chain: B2 chain with F36L, N38L, E39D, N40S, G41D, L68I, G76V, D78T, W79G, D81R
B22 had an ELISA HSA (RLU) in test [1] of 10000 RLU. The ELISA Fc Control (RLU) in test [2] amounted to 71400 RLU. The “ELISA CD137 (RLU)” value in test [3] was 3.44e+06 RLU.

B23: ISOP193HR9P1A7 (designed binder, not shown: small tags and cut ends)
chain: B2 chain with E32D, F36Y, N38L, E39R, N40L, G76V, D78N, W79A, D81T
The molecule B23 displayed an ELISA HSA (RLU) in test [1] of 12600 RLU. In addition, the ELISA Fc Control (RLU) in test [2] is 48900 RLU. Also, the “ELISA CD137 (RLU)” value in test [3] amounted to 1.48e+07 RLU.
